Results: the DeepSol protein solubility set

Test: soluble on expression in E. coli; label from the status in PepcDB or PDB records
For “MKAKTLIDAYEAFCPLDLSMEGDVKGLQMGSLDKDIRKVMITLDIRESTVAEAIKNEVDLIITKHAPIFKPLKDLVSSPQRDILLDLVKHDISVYVSHTNIDIVPGGLNDWFCDLLEIKEATYLSETKEGFGIGRIGTVKEQALEELASKVKRVFDLDTVRLIRYDKENPLISKIAICGGSGGEFYQDAVQKGADVYITGDIYYHTAQEMLTEGLFAVDPGHHIEVLFTEKLKEKLQGWKEENGWDVSIISSKASTNPFSHL”, the “soluble on expression in E. coli” value was “not soluble”. With “MSLQEKQLKTIQNKIASWIKEIESAFIDELFSKIGPSKMLRSKLMLALLNEKTDAILLDKAFNLCAIVEMIQTASLLHDDVIDKAAMRRKLPSINALFGNFNAVMLGDVFYSKAFFELSKMGESIAKSLSNAVLRLSRGEIEDVFVGGSFNSDKQKYWRILEDKTAHFIEASLKSMAILLNKDAKMYADFGLNFGMAFQIIDDLLDITQDAKTLGKPNFSDFKEGKTTLPYLLLYEKLNQRDQGLLISYFKQDSHEIIEWTKEKFKQYGTIEETLKIAQVYSKKALEAIKGENNLILEKLAQDVIYRTFEGHHHHHH” the “soluble on expression in E. coli” value was “soluble”. With “MGSDKIHHHHHHMNPLAVELNDLLAQHNPHVLEMLSDLGKNLFFPKGILTQSAEAKEKAHKFNATIGIATENGGPMYLQCIQDKLSAFDPKDIYPYAPPAGKPELRSLWREKMLRENPSQQGKHFSNPIVTNALTHGLSIAGDMFLDKGDHLILPDMLWGNYNLTFGTCCGAVIRKYPTFTATGGYDVDAFKAELKNSAEEKGKAVVLLNFPNNPSGYTPTVAEGDALVAAIKEVAEGGCNIVAITDDAYFGLFYEDSLKESLFGKLANLHPRILAVKLDGATKEEFVWGFRTGFITFADGNSYENTPVMTALEKKAMGIIRARISNCPHPSQTFAIEALRSPNFIKQKQEKFQVLKGRALKTKEVLNSGKYDKAWDYYPFNSGYFMCLKLKTVDAEKLRVHMLDKYGVGAISIGKTDLRIAFSCIDEKDIPELFATIHQAVQDLS” the “soluble on expression in E. coli” value was “not soluble”. With “MLPINRQQHILKWLKEEGSLRISDISARFGVSEMTVYRDVNQLVQSNQVIKTAGGITLPVRTPQTDHMCSYCLKPVNQAHSVQLITVNQDIEQLCCAHCAFLRYADKTEEVSHLICRDFLLQTTVSAGSAYFVVNAELNLHCCQPQAIPFATLDHAERFQKGFGGAVCTFDQALEDMLQDRKKRCTCTKK” the “soluble on expression in E. coli” value was “soluble”. With “MPTKLSNKYHDEIEQNGFTVVRNFLSPQEIEKYTKASEALVQYARDGNWPHVRTRGKQFPPWPKNFSPDIWGVSGLLHPDLGELSKPFHDLYSDEKLLNVVCDILLIEKTDLSMELLNMLINPLTDFELDWHRDTIKPEVTPEEEAEDLLKFPYAGAQFNLALTEDDCLIAIPGSHNRVRTTEEREKTIDPNRRKEFITGEIRVQLQPGDLVFYNNNILHRAAYSSKNKRLTLHGSYGNVNQGKSRAKGILQHGVAEWLPRLETKNTNLKMLQEKLLNLAKEFEGVELGYALDG” the “soluble on expression in E. coli” value was “soluble”. With “MQELQLKVTQAQVEIIDREKFEQNINEVVAKYQNYAVTAGTIKDDKQVLADLRKLKKQLSDERIKVKKELSKPADDIDGYIKQASKPLDDTIDKIATDVKEFEDHQKALRLDTVKSYLSNKASEYMLDPRIFDEKAMEYTKAGNFMADGVTLKKVTMKSLEDLVTFEYQKEQEVEKAKATISGQCAEYGMTDQPYIRMLKEMTLVEVLGQIKADYLAEKQK” the “soluble on expression in E. coli” value was “not soluble”. With “GMDVEIVEELSKMLAGRKAVTEEEIRRKAIRCALKIMGARLVGIDAELIEDVTCSLIDCPITLKSLHFSEKVKIGDVLFYHPHVIKPEKEDFEQAYFEYKQSKKFLDAFDIMREVTDRFFEGYEAEGRYMRKYTKDGRNYYAFFSTIDDTFEDVDIHLRMVDEVDGDYVVIVPTENELNPFLKFFKQYSEDAKRAGLKIWVVNPDEKTIDPFIGYPKDFRLLKGFKNPKAAALVSAYWRVTVTDLD” the “soluble on expression in E. coli” value was “soluble”. For “MHERERHRIILSATQEKAVVTVQDIAELTDASEATIRRDIASLHVQGKLRRVRGGAEAVHPPQLGNLAARPFRVSESVNIDKKRAIARKAVDLCNDGDAIILNGGTTTFQMVHYMAARRLQVMTNSFAIAEHLVKHSKCNVNVPGGAIYRDQSLILSPFENDAIRNFYARRIFLGAQGVGALGIMESDALVIQSEQKLMRQAEELIVMVDSSKFRKRSSLILCPLENVTTIITDDGISDEAARMVENAGVELLIAGAVAAGKTAGPPDEENSSSVALEHHHHHH”, the “soluble on expression in E. coli” value was “not soluble”. For “MGSDKIHHHHHHMSSSTTPDLLYPSADKVAEPSDNIHGDELRLRERIKDNPTNILSYFQLIQYLETQESYAKVREVYEQFHNTFPFYSPAWTLQLKGELARDEFETVEKILAQCLSGKLENNDLSLWSTYLDYIRRKNNLITGGQEARAVIVKAFQLVMQKCAIFEPKSSSFWNEYLNFLEQWKPFNKWEEQQRIDMLREFYKKMLCVPFDNLEKMWNRYTQWEQEINSLTARKFIGELSAEYMKARSLYQEWLNVTNGLKRASPINLRTANKKNIPQPGTSDSNIQQLQIWLNWIKWERENKLMLSEDMLSQRISYVYKQGIQYMIFSAEMWYDYSMYISENSDRQNILYTALLANPDSPSLTFKLSECYELDNDSESVSNCFDKCTQTLLSQYKKIASDVNSGEDNNTEYEQELLYKQREKLTFVFCVYMNTMKRISGLSAARTVFGKCRKLKRILTHDVYVENAYLEFQNQNDYKTAFKVLELGLKYFQNDGVYINKYLDFLIFLNKDSQIKTLFETSVEKVQDLTQLKEIYKKMISYESKFGNLNNVYSLEKRFFERFPQENLIEVFTSRYQIQNSNLIKKLELTYMYNEEEDSYFSSGNGDGHHGSYNMSSSDRKRLMEETGNNGNFSNKKFKRDSELPTEVLDLLSVIPKRQYFNTNLLDAQKLVNFLNDQVEIPTVESTKSG”, the “soluble on expression in E. coli” value was “not soluble”. In the case of “MGSDKIHHHHHHMSEPVIKSLLDTDMYKITMHAAVFTNFPDVTVTYKYTNRSSQLTFNKEAINWLKEQFSYLGNLRFTEEEIEYLKQEIPYLPSAYIKYISSSNYKLHPEEQISFTSEEIEGKPTHYKLKILVSGSWKDTILYEIPLLSLISEAYFKFVDIDWDYENQLEQAEKKAETLFDNGIRFSEFGTRRRRSLKAQDLIMQGIMKAVNGNPDRNKSLLLGTSNILFAKKYGVKPIGTVAHEWVMGVASISEDYLHANKNAMDCWINTFGAKNAGLALTDTFGTDDFLKSFRPPYSDAYVGVRQDSGDPVEYTKKISHHYHDVLKLPKFSKIICYSDSLNVEKAITYSHAAKENGMLATFGIGTNFTNDFRKKSEPQVKSEPLNIVIKLLEVNGNHAIKISDNLGKNMGDPATVKRVKEELGYTERSWSGDNEAHRWT”, the “soluble on expression in E. coli” value is reported as “soluble”. For “AEMKNLKIEVVRYNPEVDTAPHSAFYEVPYDATTSLLDALGYIKDNLAPDLSYRWSCRMAICGSCGMMVNNVPKLACKTFLRDYTDGMKVEALANFPIERDLVVDMTHFIESLEAIKPYIIGNSRTADQGTNIQTPAQMAKYHQFSGCINCGLCYAACPQFGLNPEFIGPAAITLAHRYNEDSRDHGKKERMAQLNSQNGVWSCTFVGYCSEVCPKHVDPAAAIQQGKVESSKDFLIATLKPR”, the “soluble on expression in E. coli” value was “soluble”. In the case of “MGTGGITSNAHVVSPTWHHKHVPPMDDDSVLQRDIGELLSRWGGLQMAVKNQWGGHDSLKKSQELAHNLFHLISQSNGSIFFLLL”, the “soluble on expression in E. coli” value is reported as “not soluble”. In the case of “MKLSRRSFMKANAVAAAAAAAGLSVPGVARAVVGQQEAIKWDKAPCRFCGTGCGVLVGTQQGRVVACQGDPDAPVNRGLNCIKGYFLPKIMYGKDRLTQPLLRMKNGKYDKEGEFTPITWDQAFDVMEEKFKTALKEKGPESIGMFGSGQWTIWEGYAASKLFKAGFRSNNIDPNARHCMASAVVGFMRTFGMDEPMGCYDDIEQADAFVLWGANMAEMHPILWSRITNRRLSNQNVTVAVLSTYQHRSFELADNGIIFTPQSDLVILNYIANYIIQNNAINQDFFSKHVNLRKGATDIGYGLRPTHPLEKAAKNPGSDASEPMSFEDYKAFVAEYTLEKTAEMTGVPKDQLEQLAQLYADPNKKVISYWTMGFNQHTRGVWANNLVYNLHLLTGKISQPGCGPFSLTGQPSACGTAREVGTFAHRLPADMVVTNEKHRDICEKKWNIPSGTIPAKIGLHAVAQDRALKDGKLNVYWTMCTNNMQAGPNINEERMPGWRDPRNFIIVSDPYPTVSALAADLILPTAMWVEKEGAYGNAERRTQFWRQQVQAPGEAKSDLWQLVQFSRRFKTEEVWPEDLLAKKPELRGKTLYEVLYATPEVSKFPVSELAEDQLNDESRELGFYLQKGLFEEYAWFGRGHGHDLAPFDDYHKARGLRWPVVNGKETQWRYSEGNDPYVKAGEGYKFYGKPDGKAVIFALPFEPAAEAPDEEYDLWLSTGRVLEHWHTGSMTRRVPELHRAFPEAVLFIHPLDAKARDLRRGDKVKVVSRRGEVISIVETRGRNRPPQGLVYMPFFDAAQLVNKLTLDATDPLSKETDFKKCAVKLEKV”, the “soluble on expression in E. coli” value is reported as “not soluble”. With “MKEVLRVRTTKHTSIVNITQQVDQVVKKSGVREGICVVYTPHTTACVFVNEGADPDVVRDIVYSLEKLIPWNDPSYAHMEGNSAAHIRSAIIGNSRVIPIIDGELALGTWESIFLADFDGPRERKVIVVVLGEKLEHHHHHH” the “soluble on expression in E. coli” value was “not soluble”. With “MEKYLPILRNSPFFKGLSDNEILSILHCVNATVISKERASYIFRAGDSTEVMGLVVSGCVLVMQEDLWGHRNILSKCHAGDFFGEPYAASLGAVLNISVAADEDCEIIFLNVQRLLVTCQTACEHHQKLIRNLVSVLANKILILNDKITHVGKRTTRDKLLSYLSAESIRRSSLSFDIPFDRQQLADYLCIDRAAMSTEISKLQKEGFIKTNRNHFELIACNETDLQADK” the “soluble on expression in E. coli” value was “not soluble”. In the case of “MGSDKIHHHHHHMKIDDMDAFVAVIRCQSTNLAAEALQLTQPAITRRVQNFEEDLGATLLDRNTKPLKPTPMGLRVYEQCKAILREIDSLRELVANDGAPSGTLRLGVPQTLGDVVLLDALAQIREAYPQLRTQVTSGWGSSLIARMENGELDAAAALFPPGKIFPEGIASQSIARMPLRVVTAKGSAGKRSYKLKDCYTRGWVLNPDGCGFRAGLQRALSEQGLSLSINLETFGTELQLGLVANGQGLGLVPEPLLQTSRHRSALDVLNISDFKPQVDLWLFHPRYLGNLQEPVELFGEVAGHRLLG”, the “soluble on expression in E. coli” value is reported as “not soluble”. For “RTEVVAVALDTSLEELKGRFVESGISKIIVYDGNIDNVVGYIHSSEMFRSPKDWRNHVKEVPIVPETMAAHKLMKLFMQQKKTIAVVVDEFGGTSGIVSLEDLVEEIFGDIEDEHDNTSYICKQIGE”, the “soluble on expression in E. coli” value was “not soluble”. For “GFASHQYVNHVEKQRPIVTLAKHPKKVLFFYRDDCPDCQAIFHRIYWHNVISHNVVFINMNQTQNRHYIQQYQLTSVPTLIHGKQRYTGTNQQRIKQIVGD”, the “soluble on expression in E. coli” value was “not soluble”. In the case of “MTTPSMEMYIEQIYMLIEEKGYARVSDIAEALAVHPSSVTKMVQKLDKDEYLIYEKYRGLVLTSKGKKIGKRLVYRHELLEQFLRIIGVDEEKIYNDVEGIEHHLSWNSIDRIGDLVQYFEEDDARKKDLKSIQKKTEHHNQ”, the “soluble on expression in E. coli” value is reported as “soluble”. In the case of “MVLDIDMFRTEKGGNPEIIRKSQQDRFKDPKLVDEVIELDEKWRKERFVADQLNRQKNAISKAIGEKMKKKEPQGTDDSVADDIVARLAELKIDELSQLTVVQLKKLRVLVDEKSVQTAAAVIANENARHEKLIQIGNLIHSSVVVSKDEANNKIERTFGDLSTKKKYSHVDLVVMVDGFDGERGTVVAGGRGYFLKGPLVFLEQAIIQLALQRLNVKGYVPLYTPFFMRKEVMQEVAQLSQFDDELYKVSSKGSEIAGDTSVDEKYLIATSEQPIAAYHRNEWIKETELPIKYAGVSTCFRQEVGSHGRDTRGIFRVHQFEKIEQFVLCSPNDNESWTLFDEMIGNAESYYQELQIPYQVVNIVSGELNNAAAKKFDLEAWFPGSGAYRELVSCSNCLDYQSRRLKVRYGQTKKLSGEVPFVHMLNATMCATTRVICAILENNQTEEGINVPTAIQQWMPENYRTFIPFVKPAPIDEDAKKATGKK”, the “soluble on expression in E. coli” value is reported as “not soluble”.
